{
  "source": "patent US20250051427A1",
  "about": "“METHODS OF USING AN ANTI-AMYLOID BETA PROTOFIBRIL ANTIBODY AND ANTI-TAU ANTIBODY” (published 2025)",
  "binders": {"B1": {"name": "E2814 (antibody, V domains shown)", "VH": "EVQLLESGGGLVQPGGSLRLSCAASGYTFTTYWITWVRQAPGKGLEWVSDIYPGSSISNYNEKFKSRFTISVDNSKNTLYLQMNSLRAEDTAVYYCAREDGYDAWFAYWGQGTLVTVSS", "VL": "DIQMTQSPSSLSASVGDRVTITCRSSQSILHSNGNTYLEWYQQKPGKAPKLLISKVSNRFSGVPSRFSGSGSGTDFTLTISSLQPEDFATYYCFQGSHVPFTFGQGTKLEIKR"}},
  "key": {"[1]": {"target": "T1, MTBR-tau (microtubule binding region tau) in CSF (Homo sapiens)", "assay": "E2814-bound and free MTBR-tau in CSF after a single E2814 infusion of 3 mg/kg"}, "[2]": {"target": "T1, MTBR-tau (microtubule binding region …)", "assay": "E2814-bound and free MTBR-tau in CSF after a single E2814 infusion of 10 mg/kg"}, "[3]": {"target": "T1, MTBR-tau (microtubule binding region …)", "assay": "E2814-bound and free MTBR-tau in CSF after a single E2814 infusion of 30 mg/kg"}},
  "data": [
    {"binder": "B1", "values": [
      {"measurement": "target engagement (TE), fraction (%) of bound MTBR-tau relative to total MTBR-tau", "setting": "[1]", "result": "~26", "unit": "%"},
      {"measurement": "target engagement (TE), fraction (%) of bound MTBR-tau relative to total MTBR-tau", "setting": "[2]", "result": "~45", "unit": "%"},
      {"measurement": "target engagement (TE), fraction (%) of bound MTBR-tau relative to total MTBR-tau", "setting": "[3]", "result": "~60", "unit": "%"}
    ]}
  ]
}
